B1: nanotrain without L2 on SPR chip (NT0; 5'-biotin-D + C + B + A.1) (mixed)
DNA 1: CGGCAAAGATCTAAAGGCGACAAGGAAAATCCTTCAACGAAGTGGGTCGCCCTAACTCTCTATCCG
DNA 2: TTGAGCTGGTTGTATGGCGACAAGGAAAATCCTTCAACGAAGTGGGTCGCCGGATAGAGAGTTAGG
DNA 3: ATACAACCAGCTCAAGGCGACAAGGAAAATCCTTCAACGAAGTGGGTCGCCATTCATAAACATAAC
DNA 4: GGCGACAAGGAAAATCCTTCAACGAAGTGGGTCGCCGTTATGTTTATGAAT
modifications: 5' biotin on D

Key:
[1] = biological target: T1, Plasmodium falciparum lactate dehydrogenase (PfLDH) (Plasmodium falciparum, UniProt Q76NM3 1-316); test: SPR
[2] = biological target: T1, Plasmodium falciparum lactate …; test: SPR; remark: listed apart in the source

Binder	Kd [1]	binding result [2]
TTTAGATCTTTGCCGCTGGGCGGTAGAACCATAGTGACCCAGCCGTCTAC (structured_DNA, biotin (position not given)) [biotinylated L2]	66 ± 7 nM	–
B1	–	no binding
